Results: the DeepSol protein solubility set

Assay: soluble on expression in E. coli; label from the status in PepcDB or PDB records

With “SLSDTQEPVKLRIVHFNDVYNVFSISGGLGGGAAPFCTGLREKRGPDGLVLFSGDIFSPSPLSEASKGRQMAELLNYLDVHTSCYGNHDLDFGWEWLELLAGTTKCKWVMSNARSKIGGGVLANAQRYRIFEWGTTQRVVVGIMALIEEDWIDTLNAPDQEEIVYQDFVEAGREMVALFRRRGCDLVIALTHMRWNNDEKLAREVDGIDLILGGHDHAYVTKLVNGTAVIKSGSDFREFSAITLTPKLHLREQGTSHATGFSADHDSLAADGKNGYPVAFSGSTGGVAEVDGLCRQHGDSSHAVKRAGVCECLGRTQPVRQTKPEVVEGIHTEETQPAKLWSSGRWWLSCEKVCVSADRFEADDSVMEMLVRYQTTYGNSQGCVLGAFPVLLETRFCEVRTRECNSGNWLADLMREYYGVDVALYNSGGIRSDCVFAEGEVVTSETLHAILSGTRQLDVIAVPGNLFKSILETSVSRWPQLEGRFLQVSGLRFVFEGSARVGERVLADEIQFRNRETGDWEPLVPDRVYSVATATFLARGGDGLSVLVDCPPLDTPQRNIRDLSELARLWFCRQHRKCGFEDVEEIPPRECEWIDR” as the sequence, how does the “soluble on expression in E. coli” value read?
Its value is “not soluble”.

With “MYLLLSLALVCTAAASSGYGIPANDDPSYSPPANDNPSYSAPANSDNRLYYDYSSRSSSSSSDSSEERECRKLREFDLPSELKSIGVKAKFSEMERRGKTYTTISCPSNTKTYAIIADKSGSNVSQGDITIQDAVLLATGVNIDVVGRCRGRRTTVVANNGDEVKIKTVVCVELSTSPDKY” as the sequence, how does the “soluble on expression in E. coli” value read?
Its value is “not soluble”.

With “GSSGSSGHESETTTSLVLERSLNRVHLLGRVGQDPVLRQVEGKNPVTIFSLATNEMWRSGDSEVYQLGDVSQKTTWHRISVFRPGLRDVAYQYVKKGSRIYLEGKIDYGEYMDKNNVRRQATTIIADNIIFLSDQTKEKE” as the sequence, how does the “soluble on expression in E. coli” value read?
Its value is “soluble”.

For “MSLEKTTRMNYLFDFYQSLLTSKQKSYMSLYYLDDFSLGEIAEEYEVSRQAVYDNIKRTEAMLEQYEEKLLLLKKFQERKEMFNKLKELASGSKEEEEITALIEALEKLD”, which “soluble on expression in E. coli” value is on record?
The value was “soluble”.

Which “soluble on expression in E. coli” value does the source give for “TAELKICRVNRNSGSCLGGDEIFLLCDKVQKEDIEVYFTGPGWEARGSFSQADVHRQVAIVFRTPPYADPSLQAPVRVSMQLRRPSDRELSEPMEFQYLPDTDDRHRIEEKRKRTYETFKSIMKKSPFNGPTEPRP” here?
The value was “soluble”.

Which “soluble on expression in E. coli” value does the source give for “MQVNIILLAAGKGQRFQSSSPNKIGCATIKQLARINDKPLIVHSIDKLQPLLKNAYVHNFFVTLGANKNAIQTVLPQDISVIASQHWAEGMGHTLAESVHSIKATSSHVLVALADQALITTEHYQELLSASKEQPNKIIATLCEGQLMAPAIFPEKYFPLLVKIQGDKGAGKLLLQHAKKADAITCEDAKIDIDTFSDLERVRQHLEYALQDNQQSSL” here?
Its value is “not soluble”.

With “MTGYACNHPNIYQSCNCQSFCQPYTHPHEMYYHHGYGCNGHCLDHQESMCEEDDECGMKKRKKHRKKNKKKKNKKKFRFSDEEDDEEKVAHHKKKPIEEDDDEFPLPPNSEEVAEASKSSKKEEDWEDDDKWERKFVSQTTTPAPRQAASGGGLGGLGLGNGGLFGISSGVGVGIPGVGPIGVSSGLGIGK” as the sequence, how does the “soluble on expression in E. coli” value read?
Its value is “not soluble”.

For “MKFIDEYRDPARARALLDRIRQVARHDWTIMEICGGQTHSILRNGIDQLLPPNVQLVHGPGCPVCVTPLETIERALAIAARPNTILTSFGDMLRVPGNSKDLFMARSEGADVRVVFSPLEALQIARDNPSKEVVFLGVGFETTAPANAMAVHQAAREGLTNFSELVSQVMVPPAMRAMLSSPGNRVQGFLAAGHVCAIMGYEEYEPVAAEFGVPIVPAGFEPVDLLDAILKTVELLEAGRSGVVNAYGRVVSREGNPEARRVMQEVFEVADRPWRGIGVIPASGLVLRPEYKRFDAEKRFDVGHIAPQESPLCRSGEVLQGHLKPSDCPAFGKECTPQTPFGATMVSSEGACAAYYRYHRNSNT”, which “soluble on expression in E. coli” value is on record?
Its value is “soluble”.

Which “soluble on expression in E. coli” value does the source give for “MGSETKHSAKVKIVTRESPPSAKEHMRPTKTQILVPPTQSLPNGKKPNFGKSTKQRREPRERTSKTGHEDDKATMVTVNIDAFLHDKAPKKKSCKYKKKKTRQYQDRAAASIDSKPHVAGHTAFAGASFTTDIPHEAALPKPSFV” here?
Its value is “soluble”.

For “MGSDKIHHHHHHMFRTVALTGATGFIGRVLIAKLAASGWKVRALARRVPFRQDLPLVEWICGDMNCDSVLCDLVSGTEAVIHCAGAIRGKSWDDFSRTNVTGTRNILRAASGAPSCSRFLFISSLAAREPHLSWYARSKFEAEQLIPGFSGLASTVFRPAAVYGLGDKAMQPFFQAMRYGILLVPGDPGNRFGLIHVDDMVAAIHNWLEAGQPVKGTYEIDDGTSGGYDYTSIAALAEQVLSRPVHCLQIPLGGIRMLARFNLWLAHLLNYAPILTPGKVMEFQHPDWTCDISSLKRELAGWSPVTKLETVLPLLVRM”, which “soluble on expression in E. coli” value is on record?
The value was “not soluble”.

For “KILEREFSMNEQLFKDLFDRAVDGIVLFDKDGGFIDANLSFCKSFEINHNELSHLSLYEFIDSGSRKDFDNIWKALNRKGKAKGELPVKLRSGVQKLFEFTITSNIISGFYMSIMRDIT”, which “soluble on expression in E. coli” value is on record?
Its value is “not soluble”.

Which “soluble on expression in E. coli” value does the source give for “MLRKLSKFSNKGEVFMGLLEGKRALITGVANERSIAYGIAKSFHREGAQLAFTYATPKLEKRVREIAKGFGSDLVVKCDVSLDEDIKNLKKFLEENWGSLDIIVHSIAYAPKEEFKGGVIDTSREGFKIAMDISVYSLIALTRELLPLMEGRNGAIVTLSYYGAEKVVPHYNVMGIAKAALESTVRYLAYDIAKHGHRINAISAGPVKTLAAYSITGFHLLMEHTTKVNPFGKPITIEDVGDTAVFLCSDWARAITGEVVHVDNGYHIMGVFGREEEIKKEVYGD” here?
The value was “soluble”.

With “IVGGKVCPKGECPWQVLLLVNGAQLCGGTLINTIWVVSAAHCFDKIKNWRNLIAVLGEHDLSEHDGDEQSRRVAQVIIPSTYVPGTTNHDIALLRLHQPVVLTDHVVPLCLPERTFSERTLAFVRFSLVSGWGQLLDRGATALELMVLNVPRLMTQDCLQQSRKVGDSPNITEYMFCAGYSDGSKDSCKGDSGGPHATHYRGTWYLTGIVSWGQGCATVGHFGVYTRVSQYIEWLQKLMRSEPRPGVLLRAPFP” as the sequence, how does the “soluble on expression in E. coli” value read?
Its value is “soluble”.

With “MSLSDNAQHLYVNGNVGSSTEEITSVEYSKLLQLKLIDESLSFQWCNNYTVLSIYSMKETFARKTIYIHFPKPLLNKWFTAVVYESSETTSNLCFDVILKDGIFINLSLPIDFILSRTRQNEYPENWLKVLNPYDFSVRPPQCLFHVDNTFSVVFLKDGGLLGLKRIPLEILNDFELQPVLFNDSSYFQSFTRMFSKYDNHNSAVVSAELLNDKYLVTLTNDATIKIWDLTTYQLNAHFDLKEKNQQVNYGAAGKYMIICGSLLFVYLPAGNGSFQVIQLENTHSSRISFKPLNVNIPLNLSSYSIWSLIDIQLVKSSIVKQSGLNLVLLWKSNTVTKLQLLSFEDSLYSSYKWIDGNSTYLSDLLDDSDLITNGNMEKALLNLKSHYSQSTYDDAQKILNKNNVMVQINDPHNQDYLNNLEALLKELHKQYQEPSTLTILDDEIIVVNSLHMYHHSTYKLDSQLETIFFNIFEREGHHHHHH” as the sequence, how does the “soluble on expression in E. coli” value read?
Its value is “soluble”.

Which “soluble on expression in E. coli” value does the source give for “MSLTYPYRTTMALNTYQYRETTMIDPKKIEQIARQVHESMPKGIREFGEDVEKKIRQTLQAQLTRLDLVSREEFDVQTQVLLRTREKLALLEQRISELENRSTEIKKQPDPETLPPTLEGGSHHHHHH” here?
Its value is “soluble”.

Which “soluble on expression in E. coli” value does the source give for “MAHHHHHHMSVSVTEHRHGDMHHGTMRRRCLTRVLLAGPQGDLEALVSRMPRTWSLQQPLEMLQPEAVEEERANTASAAAATRTENAGLAGGKVPDKSAASVMISYSPVRATLPLAAAASEEERAEEDVVDVVAAVEEKAAMKADLHNSSGSAVEPPSLEGTPNVRLHAAQAPHEEQQEEGDCGVVVAHEAPALTEDGIPGADSAVVRAAEVAATLDIGSQLAEAAPCADRASLDSSAALPVSQVPE” here?
Its value is “not soluble”.

With “MGSDKIHHHHHHMNSLGAVIKEIRKNRKLTQKMLSEDICSQSVLSRIENNEELPNVLVMQQLCDRLGVTVDQIMRYKSGDVHVVTYSFEKMAEYFRHKKYQLLLNYLKENRIEEQLYLDTDWQKYYYYLGSCELFVLNDYEKAIASLRKGLSFTYKADKLNVSDLEIQLISCLGATYGYMGNRVEAERFLSLSIHYFNQLPNERSNAELTKIFFNYADFLFKNYTEKDAEIYVDQGITWARKKNSYYYLSELLNLKYLVLMRKNKHEEAERYLNLAQQMKNVESGNL” as the sequence, how does the “soluble on expression in E. coli” value read?
Its value is “not soluble”.

For “MGSDKIHHHHHHMTILHSTDFFKAGISTVAIEPRLPQSAFPEHHHDFHEIVIVEQGSGIHVFNGQPYTIGGGSVCFIRDHDRHLYEHTDNLCLTNVLYRAPDAFRFLAGVSQLLPQEQEGNYPSHWRVNQTVLQQVRHIVAQIEAVGSDTDTHAVASREILFMQLLVLLRKSSLAEEATNNDARLNQLLAWLEDHFAQEICWEEVAAQFSLSLRTLHRQLKQQTGLTPQRYLNRVRLMKARHLLRHSDESVTDIAYRCGFGDSNHFSTLFRREFDWSPRDIRQGRDAILQ”, which “soluble on expression in E. coli” value is on record?
Its value is “not soluble”.

Which “soluble on expression in E. coli” value does the source give for “GPGSMDYPKKNQAAPAEGQTVRLTITSRNAKAVESVTSQLLTRARDEKVTIHGPVRLPTRTLKITTRKTPCGNGTNTWDTFELKIYKRIIDLHAPTEQVKKITSFTMESGVDVSITILDR” here?
The value was “soluble”.

For “MSTQNEESEESARRPQSISHLARVEVEEPARKMRLMFGEKQVVFIRSDGLRSRVVRENMKKKLSQEIEKKEDLDTDSPNLTKVIDDVASGATGSSSLPSSSTESYSTSSSSSSSSSDLNSAYSSTSEPQATSSSAPESSTNSSASPEIKGNRNYHPPREFHGASTMVSHKRRWTYQTACDINAAEQSGDSEMYYIAHPLLPMPRGSGRNEVSTATRMNYAGQQIDNRKFRGQSKAVNQFANTESVTCEKCGMRYFFESIQMQERISYLLPPNEEDLPIALFECPVCKITTKVK”, which “soluble on expression in E. coli” value is on record?
Its value is “not soluble”.

With “MGSDKIHHHHHHMVYTTPWNRKIEFGRTMVMGIINVTPDSFFADSRKQSVLEAVETAKKMIEEGADIIDVGGMSTRPGSDPVDEEEELNRVIPVIRAIRSITDVPISVDTYRWRVALKALEAGADIVNDISGYQFEPDIVRVVSENNVPYVLMHIKGTPKTMQENPHYEDVVKEIKEYFTEKIEYLKEKGVNQIVLDPGIGFGKRYEDNLEILRRIDEFKELKLPILIGASRKSFIGITLGNVPPEERLEGTLAVTAYCTMKGVDIIRVHDVLPNKRVIRMMEAILWQRL” as the sequence, how does the “soluble on expression in E. coli” value read?
Its value is “not soluble”.

With “MSLTGTDFHVGIVGLGSMGMGAARSCLRAGLSTWGADLNPQACANLLAEGACGAAASAREFAGVVDALVILVVNAAQVRQVLFGEDGVAHLMKPGSAVMVSSTISSADAQEIAAALTALNLNMLDAPVSGGAVKAAQGEMTVMASGSEAAFTRLKPVLDAVASNVYRISDTPGAGSTVKIIHQLLAGVHIAAAAEAMALAARAGIPLDVMYDVVTHAAGNSWMFENRMQHVVDGDYTPRSAVDIFVKDLGLVADTAKALRFPLPLASTALNMFTSASNAGYGKEDDSAVIKIFSGITLPGVTPEEGHHHHHH” as the sequence, how does the “soluble on expression in E. coli” value read?
Its value is “soluble”.

For “MGMYFVGIDGGGTSCRARIKDSQGNFLGEAKSGSANIMLGAEIAMASILESITSAAEQGGLTQQDFASMHVGLALAGAEHKASWQAFMSLPHPFASMTLNTDAYGACVGAHNGEDGAIMIAGTGSCGIYLKGLEQHVVGGREFPISDQGGGAVMGLRLVQQVLLAEDGIREKTPLAQHVMAYFENDVDNVVAWSKQALPRDYGQFSPAIFQHAEQGDALAIEMLKQTAADIEMFLVALNKRGATRICLMGSIAERILRWLSPPVQQWVVEPQFDAIEGAIMFAGKPEHNLYSLSAALEHHHHHH”, which “soluble on expression in E. coli” value is on record?
Its value is “not soluble”.
